Laboratory results from PMC6896899.

Target: megalin (human (endogenous in primary PTECs)) (UniProt P98164)
UniProt P98164, sequence (P98164 26-4655): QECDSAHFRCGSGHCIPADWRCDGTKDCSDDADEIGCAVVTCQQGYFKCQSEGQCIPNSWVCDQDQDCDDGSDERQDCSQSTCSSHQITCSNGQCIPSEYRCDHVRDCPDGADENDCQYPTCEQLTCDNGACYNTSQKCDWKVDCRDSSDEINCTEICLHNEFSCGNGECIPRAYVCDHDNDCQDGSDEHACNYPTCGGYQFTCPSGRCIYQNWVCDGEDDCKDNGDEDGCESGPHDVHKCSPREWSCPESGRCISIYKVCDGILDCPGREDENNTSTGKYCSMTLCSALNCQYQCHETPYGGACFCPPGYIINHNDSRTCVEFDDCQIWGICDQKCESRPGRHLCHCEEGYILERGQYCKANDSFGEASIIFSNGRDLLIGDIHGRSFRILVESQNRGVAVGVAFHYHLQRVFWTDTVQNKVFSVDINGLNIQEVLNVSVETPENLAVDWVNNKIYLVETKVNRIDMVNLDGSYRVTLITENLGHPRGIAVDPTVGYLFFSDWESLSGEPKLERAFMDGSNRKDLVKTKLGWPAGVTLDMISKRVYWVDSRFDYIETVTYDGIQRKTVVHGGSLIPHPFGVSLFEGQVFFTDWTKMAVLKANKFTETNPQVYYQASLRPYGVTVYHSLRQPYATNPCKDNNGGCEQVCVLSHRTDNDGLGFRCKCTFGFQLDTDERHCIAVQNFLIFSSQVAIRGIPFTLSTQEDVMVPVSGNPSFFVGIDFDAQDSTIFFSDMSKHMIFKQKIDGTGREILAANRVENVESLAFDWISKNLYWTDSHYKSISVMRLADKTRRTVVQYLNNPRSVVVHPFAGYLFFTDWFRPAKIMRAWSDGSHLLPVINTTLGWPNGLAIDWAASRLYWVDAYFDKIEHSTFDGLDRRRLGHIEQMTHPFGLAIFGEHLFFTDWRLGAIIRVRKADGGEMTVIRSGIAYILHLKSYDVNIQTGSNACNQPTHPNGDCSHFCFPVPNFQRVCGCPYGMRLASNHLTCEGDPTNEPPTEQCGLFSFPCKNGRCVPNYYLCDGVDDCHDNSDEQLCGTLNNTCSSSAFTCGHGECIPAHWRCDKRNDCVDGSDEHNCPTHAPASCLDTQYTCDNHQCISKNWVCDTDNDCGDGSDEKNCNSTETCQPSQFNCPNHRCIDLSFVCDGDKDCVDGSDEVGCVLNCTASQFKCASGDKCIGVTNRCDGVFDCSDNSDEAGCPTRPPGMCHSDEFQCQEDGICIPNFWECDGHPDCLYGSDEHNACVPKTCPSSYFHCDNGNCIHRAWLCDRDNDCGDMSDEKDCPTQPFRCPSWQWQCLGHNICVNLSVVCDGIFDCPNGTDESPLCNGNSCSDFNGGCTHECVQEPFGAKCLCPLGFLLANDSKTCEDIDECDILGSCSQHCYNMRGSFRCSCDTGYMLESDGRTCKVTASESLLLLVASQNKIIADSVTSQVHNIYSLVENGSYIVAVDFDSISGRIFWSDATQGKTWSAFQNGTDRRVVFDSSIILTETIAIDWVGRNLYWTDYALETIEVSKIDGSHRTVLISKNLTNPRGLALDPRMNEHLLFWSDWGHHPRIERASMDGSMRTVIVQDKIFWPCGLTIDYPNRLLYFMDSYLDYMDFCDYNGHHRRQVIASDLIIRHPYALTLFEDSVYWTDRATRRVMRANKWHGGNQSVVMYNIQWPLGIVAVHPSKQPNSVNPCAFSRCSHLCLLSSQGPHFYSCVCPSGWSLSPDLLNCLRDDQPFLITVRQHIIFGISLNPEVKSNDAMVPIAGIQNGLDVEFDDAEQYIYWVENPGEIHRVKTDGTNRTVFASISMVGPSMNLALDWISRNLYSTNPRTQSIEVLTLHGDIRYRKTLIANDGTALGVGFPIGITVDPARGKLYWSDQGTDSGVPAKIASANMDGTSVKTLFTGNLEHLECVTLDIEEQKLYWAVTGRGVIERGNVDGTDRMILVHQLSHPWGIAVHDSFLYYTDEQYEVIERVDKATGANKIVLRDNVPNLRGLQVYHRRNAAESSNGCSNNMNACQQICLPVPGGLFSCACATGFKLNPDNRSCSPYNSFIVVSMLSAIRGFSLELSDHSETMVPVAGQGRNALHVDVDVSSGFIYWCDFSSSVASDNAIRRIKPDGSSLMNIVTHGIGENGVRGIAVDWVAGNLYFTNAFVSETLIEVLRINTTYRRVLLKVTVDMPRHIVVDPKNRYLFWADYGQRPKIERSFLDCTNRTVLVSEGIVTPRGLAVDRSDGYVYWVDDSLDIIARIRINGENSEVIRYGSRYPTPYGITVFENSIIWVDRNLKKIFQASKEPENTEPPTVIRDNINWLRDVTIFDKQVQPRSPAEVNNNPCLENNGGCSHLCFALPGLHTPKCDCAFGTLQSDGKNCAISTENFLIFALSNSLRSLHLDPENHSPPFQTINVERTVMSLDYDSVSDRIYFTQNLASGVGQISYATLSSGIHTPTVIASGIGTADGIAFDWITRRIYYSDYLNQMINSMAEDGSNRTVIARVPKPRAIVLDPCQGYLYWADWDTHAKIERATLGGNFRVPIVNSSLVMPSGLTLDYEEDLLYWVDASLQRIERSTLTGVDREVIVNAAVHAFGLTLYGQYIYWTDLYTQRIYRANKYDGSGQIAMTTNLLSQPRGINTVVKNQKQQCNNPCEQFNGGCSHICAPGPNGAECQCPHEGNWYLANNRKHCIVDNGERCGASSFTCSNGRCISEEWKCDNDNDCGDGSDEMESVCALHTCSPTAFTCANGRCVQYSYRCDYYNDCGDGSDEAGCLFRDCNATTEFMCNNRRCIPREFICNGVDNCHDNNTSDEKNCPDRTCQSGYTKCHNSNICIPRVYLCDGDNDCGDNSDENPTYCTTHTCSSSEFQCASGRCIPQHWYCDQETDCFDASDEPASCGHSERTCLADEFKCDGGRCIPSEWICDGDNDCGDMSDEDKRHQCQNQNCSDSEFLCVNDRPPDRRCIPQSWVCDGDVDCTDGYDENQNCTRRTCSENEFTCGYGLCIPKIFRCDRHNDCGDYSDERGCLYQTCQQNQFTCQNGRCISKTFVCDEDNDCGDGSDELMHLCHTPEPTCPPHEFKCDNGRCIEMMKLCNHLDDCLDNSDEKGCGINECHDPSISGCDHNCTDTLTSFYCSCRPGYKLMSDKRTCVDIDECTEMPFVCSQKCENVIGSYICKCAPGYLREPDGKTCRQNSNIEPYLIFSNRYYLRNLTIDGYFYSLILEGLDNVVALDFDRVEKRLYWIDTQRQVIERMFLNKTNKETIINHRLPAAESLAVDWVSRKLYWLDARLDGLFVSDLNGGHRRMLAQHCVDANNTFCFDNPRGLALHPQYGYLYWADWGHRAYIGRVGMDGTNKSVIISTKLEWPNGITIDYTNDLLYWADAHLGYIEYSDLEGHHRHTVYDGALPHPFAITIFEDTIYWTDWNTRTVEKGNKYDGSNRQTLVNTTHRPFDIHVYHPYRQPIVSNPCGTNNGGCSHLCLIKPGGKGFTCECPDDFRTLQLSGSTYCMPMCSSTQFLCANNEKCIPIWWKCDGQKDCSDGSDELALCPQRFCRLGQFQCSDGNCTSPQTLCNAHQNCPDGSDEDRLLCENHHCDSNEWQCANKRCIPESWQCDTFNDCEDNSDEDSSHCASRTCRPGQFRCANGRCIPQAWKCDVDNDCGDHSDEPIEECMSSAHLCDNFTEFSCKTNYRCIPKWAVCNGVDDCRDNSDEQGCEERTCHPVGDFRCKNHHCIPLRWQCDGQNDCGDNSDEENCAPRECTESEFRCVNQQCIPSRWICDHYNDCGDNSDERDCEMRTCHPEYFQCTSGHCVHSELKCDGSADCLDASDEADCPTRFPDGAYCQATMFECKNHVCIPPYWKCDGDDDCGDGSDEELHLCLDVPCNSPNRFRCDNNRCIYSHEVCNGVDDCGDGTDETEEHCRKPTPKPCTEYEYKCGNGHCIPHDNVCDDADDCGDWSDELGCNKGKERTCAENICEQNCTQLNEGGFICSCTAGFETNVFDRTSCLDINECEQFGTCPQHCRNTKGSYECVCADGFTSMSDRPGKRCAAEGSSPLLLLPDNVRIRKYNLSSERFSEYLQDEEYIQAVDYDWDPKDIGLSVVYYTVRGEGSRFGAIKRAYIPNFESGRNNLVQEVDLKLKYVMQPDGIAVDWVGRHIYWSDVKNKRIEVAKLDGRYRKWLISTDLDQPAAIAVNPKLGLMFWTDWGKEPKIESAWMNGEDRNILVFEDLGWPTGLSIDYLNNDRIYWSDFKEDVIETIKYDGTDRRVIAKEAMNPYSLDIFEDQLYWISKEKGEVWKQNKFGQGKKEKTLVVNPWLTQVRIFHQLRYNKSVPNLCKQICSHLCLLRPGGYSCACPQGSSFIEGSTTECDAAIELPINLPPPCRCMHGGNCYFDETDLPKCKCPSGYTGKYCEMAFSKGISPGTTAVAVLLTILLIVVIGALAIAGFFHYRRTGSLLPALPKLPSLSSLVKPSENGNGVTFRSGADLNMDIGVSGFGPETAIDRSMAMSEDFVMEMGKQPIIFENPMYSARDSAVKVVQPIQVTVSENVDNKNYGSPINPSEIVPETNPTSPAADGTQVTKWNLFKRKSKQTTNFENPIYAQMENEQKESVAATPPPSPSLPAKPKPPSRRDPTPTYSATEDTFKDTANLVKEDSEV

Mixed type human vitamin D binding protein (from UniProt P02774 17-474) (natural protein)
intrinsic clearance of 25OHD3 loss (CLint,25OHD3) from the perfusion medium of the PT-MPS with 3 uM DBP; fold-change with 1 uM RAP (megalin inhibitor) against no RAP, geometric mean of 5 donors (fold reduction): 2.4
